System: Escherichia coli TOP10
Experiment: shrunken log2 fold change of peptide-encoding DNA abundance (4.5 h post-induction vs induction); higher = less antimicrobial activity (less host growth inhibition)
Conditions: time post-induction: 4.5 h; library: site-saturation at positions 5, 18, 19, 20
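Note: peptides expressed intracellularly from a pBAD plasmid library in pooled LB shake-flask culture, induced with 0.3% L-arabinose, DNA abundance read by NGS, three biological replicates, DESeq2 with apeglm shrinkage.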

| Sequence | shrunken log2 fold change |
| --- | --- |
| RRIRVRPPRLPRPRPRPFHGPRP | 0.162 |
| RRIRGRPPRLPRPRPRPQDIPRP | -0.398 |
| RRIRWRPPRLPRPRPRPEEYPRP | 0.113 |
| RRIRMRPPRLPRPRPRPTWMPRP | 0.25 |
| RRIRARPPRLPRPRPRPTEDPRP | 0.269 |
| RRIRPRPPRLPRPRPRPIDMPRP | -0.0916 |
| RRIRVRPPRLPRPRPRPFMNPRP | -0.836 |
| RRIRKRPPRLPRPRPRPIQDPRP | -0.106 |
| RRIRRRPPRLPRPRPRPELRPRP | 0.463 |
| RRIRMRPPRLPRPRPRPPMNPRP | 0.315 |
| RRIRLRPPRLPRPRPRPIPIPRP | -0.456 |
| RRIRHRPPRLPRPRPRPKRFPRP | 0.0543 |
| RRIRMRPPRLPRPRPRPCTWPRP | -0.0287 |
| RRIRPRPPRLPRPRPRPWVNPRP | -0.11 |
| RRIRTRPPRLPRPRPRPRCIPRP | 0.0613 |
| RRIRARPPRLPRPRPRPSWQPRP | 0.223 |
| RRIRMRPPRLPRPRPRPWFPPRP | -0.0494 |
| RRIRCRPPRLPRPRPRPFWQPRP | -0.0799 |
| RRIRARPPRLPRPRPRPKGQPRP | 0.296 |
| RRIRYRPPRLPRPRPRPCMCPRP | -0.516 |
| RRIRNRPPRLPRPRPRPACAPRP | 0.3 |
| RRIRVRPPRLPRPRPRPAFEPRP | 0.125 |
| RRIRPRPPRLPRPRPRPYMHPRP | -0.493 |
| RRIRIRPPRLPRPRPRPMSMPRP | -0.281 |
| RRIRLRPPRLPRPRPRPQMGPRP | -0.0175 |

| Sequence | shrunken log2 fold change |
| --- | --- |
| RRIRRRPPRLPRPRPRPCLKPRP | -0.184 |
| RRIRVRPPRLPRPRPRPVQEPRP | -0.0375 |
| RRIRPRPPRLPRPRPRPVLCPRP | 0.282 |
| RRIRNRPPRLPRPRPRPPSYPRP | -0.14 |
| RRIRTRPPRLPRPRPRPQPKPRP | 0.151 |
| RRIRTRPPRLPRPRPRPQCFPRP | 0.0187 |
| RRIRIRPPRLPRPRPRPADHPRP | -0.0431 |
| RRIRVRPPRLPRPRPRPYIAPRP | -0.608 |
| RRIRDRPPRLPRPRPRPWPLPRP | 0.00172 |
| RRIRNRPPRLPRPRPRPYPSPRP | 0.0309 |
| RRIRGRPPRLPRPRPRPRSEPRP | 0.29 |
| RRIRCRPPRLPRPRPRPGQEPRP | 0.094 |
| RRIRKRPPRLPRPRPRPQKSPRP | 0.0653 |
| RRIRIRPPRLPRPRPRPKYEPRP | -0.83 |
| RRIRARPPRLPRPRPRPCVLPRP | -0.0267 |
| RRIRRRPPRLPRPRPRPEDWPRP | 0.791 |
| RRIRIRPPRLPRPRPRPYSHPRP | -0.941 |
| RRIRVRPPRLPRPRPRPFRHPRP | -0.185 |
| RRIRHRPPRLPRPRPRPPLGPRP | 0.25 |
| RRIRTRPPRLPRPRPRPCWAPRP | -0.0904 |
| RRIRGRPPRLPRPRPRPIRRPRP | 0.346 |
| RRIRSRPPRLPRPRPRPVPEPRP | 0.563 |
| RRIRYRPPRLPRPRPRPTNDPRP | -0.404 |
| RRIRRRPPRLPRPRPRPKTQPRP | 0.273 |
| RRIRWRPPRLPRPRPRPMLVPRP | 0.288 |

| Sequence | shrunken log2 fold change |
| --- | --- |
| RRIRFRPPRLPRPRPRPLYWPRP | -0.319 |
| RRIRNRPPRLPRPRPRPKGDPRP | 0.0687 |
| RRIRKRPPRLPRPRPRPRDRPRP | 1.26 |
| RRIRARPPRLPRPRPRPKMWPRP | 0.553 |
| RRIRTRPPRLPRPRPRPVNAPRP | -0.189 |
| RRIRHRPPRLPRPRPRPTCVPRP | 0.134 |
| RRIRSRPPRLPRPRPRPAYIPRP | -0.0884 |
| RRIRERPPRLPRPRPRPYVPPRP | -0.0961 |
| RRIRIRPPRLPRPRPRPAPNPRP | 0.0272 |
| RRIRGRPPRLPRPRPRPITAPRP | 0.236 |
| RRIRTRPPRLPRPRPRPIVAPRP | 2.95 |
| RRIRNRPPRLPRPRPRPYWRPRP | -0.312 |
| RRIRWRPPRLPRPRPRPCKLPRP | -0.694 |
| RRIRFRPPRLPRPRPRPSCQPRP | -0.245 |
| RRIRKRPPRLPRPRPRPHFVPRP | 0.347 |
| RRIRSRPPRLPRPRPRPLGFPRP | 0.0335 |
| RRIRVRPPRLPRPRPRPLAIPRP | 0.0184 |
| RRIRTRPPRLPRPRPRPDNYPRP | -0.0497 |
| RRIRHRPPRLPRPRPRPWHNPRP | -0.261 |
| RRIRHRPPRLPRPRPRPKVQPRP | 0.146 |
| RRIRLRPPRLPRPRPRPMFQPRP | -1.11 |
| RRIRCRPPRLPRPRPRPQQTPRP | -0.00158 |
| RRIRCRPPRLPRPRPRPCLMPRP | -0.421 |
| RRIRLRPPRLPRPRPRPCDPPRP | -0.14 |
| RRIRVRPPRLPRPRPRPMDKPRP | -0.278 |

| Sequence | shrunken log2 fold change |
| --- | --- |
| RRIRSRPPRLPRPRPRPFCNPRP | -0.106 |
| RRIRTRPPRLPRPRPRPYWHPRP | -0.4 |
| RRIRLRPPRLPRPRPRPVFQPRP | 0.042 |
| RRIRVRPPRLPRPRPRPYCWPRP | -0.0314 |
| RRIRNRPPRLPRPRPRPNCVPRP | 0.393 |
| RRIRHRPPRLPRPRPRPIGGPRP | 0.111 |
| RRIRIRPPRLPRPRPRPRQLPRP | -0.27 |
| RRIRVRPPRLPRPRPRPWSFPRP | -0.225 |
| RRIRSRPPRLPRPRPRPVACPRP | 0.271 |
| RRIRFRPPRLPRPRPRPFWWPRP | 0.398 |
| RRIRFRPPRLPRPRPRPVVKPRP | -0.461 |
| RRIRVRPPRLPRPRPRPRLWPRP | 0.45 |
| RRIRQRPPRLPRPRPRPCTCPRP | -0.0638 |
| RRIRYRPPRLPRPRPRPKVDPRP | -0.079 |
| RRIRFRPPRLPRPRPRPVNQPRP | -0.188 |
| RRIRDRPPRLPRPRPRPDRHPRP | -0.278 |
| RRIRVRPPRLPRPRPRPYRGPRP | -0.402 |
| RRIRIRPPRLPRPRPRPVHNPRP | -0.357 |
| RRIRYRPPRLPRPRPRPMFWPRP | -0.0534 |
| RRIRWRPPRLPRPRPRPIRPPRP | -0.116 |
| RRIRPRPPRLPRPRPRPFECPRP | -0.242 |
| RRIRDRPPRLPRPRPRPCGSPRP | 0.0136 |
| RRIRNRPPRLPRPRPRPCWMPRP | -0.18 |
| RRIRLRPPRLPRPRPRPGWKPRP | -0.0726 |
| RRIRWRPPRLPRPRPRPYCYPRP | -0.562 |

| Sequence | shrunken log2 fold change |
| --- | --- |
| RRIRLRPPRLPRPRPRPGSSPRP | 0.0118 |
| RRIRGRPPRLPRPRPRPSFNPRP | 0.131 |
| RRIRTRPPRLPRPRPRPHEEPRP | 0.0127 |
| RRIRNRPPRLPRPRPRPCAQPRP | 0.127 |
| RRIRGRPPRLPRPRPRPYFPPRP | -0.37 |
| RRIRNRPPRLPRPRPRPSEFPRP | -0.109 |
| RRIRARPPRLPRPRPRPEEAPRP | 3.84 |
| RRIRNRPPRLPRPRPRPHAGPRP | 0.00938 |
| RRIRVRPPRLPRPRPRPYRFPRP | -0.0944 |
| RRIRYRPPRLPRPRPRPPKQPRP | -0.0678 |
| RRIRFRPPRLPRPRPRPTTPPRP | 0.352 |
| RRIRRRPPRLPRPRPRPKPRPRP | 0.825 |
| RRIRYRPPRLPRPRPRPKYHPRP | -2.19 |
| RRIRARPPRLPRPRPRPVPVPRP | 0.423 |
| RRIRHRPPRLPRPRPRPQWAPRP | -0.018 |
| RRIRPRPPRLPRPRPRPDKSPRP | -0.442 |
| RRIRNRPPRLPRPRPRPGVRPRP | 0.212 |
| RRIRERPPRLPRPRPRPRKFPRP | 0.173 |
| RRIRYRPPRLPRPRPRPWRHPRP | -0.116 |
| RRIRMRPPRLPRPRPRPATIPRP | 0.23 |
| RRIRWRPPRLPRPRPRPIKSPRP | 0.0589 |
| RRIRDRPPRLPRPRPRPHLEPRP | -0.169 |
| RRIRGRPPRLPRPRPRPSYYPRP | 0.118 |
| RRIRFRPPRLPRPRPRPLNVPRP | -0.345 |
| RRIRPRPPRLPRPRPRPNYNPRP | -0.676 |

| Sequence | shrunken log2 fold change |
| --- | --- |
| RRIRNRPPRLPRPRPRPHCSPRP | -0.095 |
| RRIRMRPPRLPRPRPRPEAGPRP | 2.36 |
| RRIRPRPPRLPRPRPRPILYPRP | -0.299 |
| RRIRKRPPRLPRPRPRPFHAPRP | -0.179 |
| RRIRRRPPRLPRPRPRPVHLPRP | -0.022 |
| RRIRWRPPRLPRPRPRPDKTPRP | -0.0185 |
| RRIRRRPPRLPRPRPRPQILPRP | 0.0332 |
| RRIRNRPPRLPRPRPRPWDLPRP | 0.0191 |
| RRIRYRPPRLPRPRPRPHFCPRP | -0.428 |
| RRIRKRPPRLPRPRPRPKKVPRP | -0.0126 |
| RRIRPRPPRLPRPRPRPPGNPRP | 0.105 |
| RRIRERPPRLPRPRPRPSPIPRP | -0.122 |
| RRIRGRPPRLPRPRPRPWRPPRP | 0.376 |
| RRIRFRPPRLPRPRPRPQMMPRP | -0.313 |
| RRIRWRPPRLPRPRPRPNMNPRP | -0.345 |
| RRIRARPPRLPRPRPRPSPVPRP | 0.355 |
| RRIRARPPRLPRPRPRPVSQPRP | 0.385 |
| RRIRSRPPRLPRPRPRPAVFPRP | 0.114 |
| RRIRGRPPRLPRPRPRPHSYPRP | 0.231 |
| RRIRERPPRLPRPRPRPYNHPRP | -0.272 |
| RRIRQRPPRLPRPRPRPHFYPRP | -0.229 |
| RRIRARPPRLPRPRPRPMGYPRP | 0.0315 |
| RRIRYRPPRLPRPRPRPESAPRP | -0.146 |
| RRIRMRPPRLPRPRPRPDYLPRP | -0.051 |
| RRIRERPPRLPRPRPRPTWNPRP | -0.167 |

Reference: the supplement of paper PMC9112550, “Optimization of the antimicrobial peptide Bac7 by deep mutational scanning” (BMC Biology, 2022)
